The values below come from patent US20040138106A1.

The assay deals with Gly4→Compound A mutant myoglobin (myoglobin containing β-O-GlcNAc-L-serine at position 4, C-terminal His6 tag) (UniProt P02185). Kind of assay: ELISA-like assay: 200 ng myoglobin immobilized, biotinylated BSII, streptavidin-alkaline phosphatase, p-nitrophenyl phosphate, A405. (An ELISA detects its analyte on a solid surface through an enzyme-linked reagent.)
Chain of Gly4→Compound A mutant myoglobin (myoglobin containing β-O-GlcNAc-L-serine at position 4, C-terminal His6 tag) (P02185 other isoform, or with tags, fused parts or gaps mutant): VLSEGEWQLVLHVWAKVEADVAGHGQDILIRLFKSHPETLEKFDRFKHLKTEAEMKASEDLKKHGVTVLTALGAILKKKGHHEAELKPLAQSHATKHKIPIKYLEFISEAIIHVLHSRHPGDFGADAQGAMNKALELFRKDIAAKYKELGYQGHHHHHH

Regarding “GlcNAc-specific lectin, Bandeiraea simplicifolia II (BSII), biotinylated”, the fold signal (A405) against wild-type myoglobin was more than 200 fold.
